Data reported in publication PMC3903132.

Target: PSI^PsaJF, phage-mimetic photosystem I complex with the fused PsaJF subunit (one monomer of the trimer) (Synechocystis sp. PCC 6803) (UniProt P29254)
Experiment: crystal structure; PSI^PsaJF trimer purified from Synechocystis membranes, 3.8 Å, space group P21, three monomers in the asymmetric unit

Substance: PSI^PsaJF, phage-mimetic photosystem I complex with the fused PsaJF subunit (one monomer of the trimer) (from UniProt P29254 1-751; P29255 1-731; P32422 1-81; P19569 1-141; P12975 1-74; Q55329 1-40; P29256 84-165; Q55330 1-40; P72712 1-86; P37277 1-157; P72986 1-31)
- stoichiometry N: 3
